We go through 1 substance from publication doi:10.1101/520460.

Assay [1] addresses paclitaxel stabilized microtubules (polymerized bovine brain tubulin) (bovine) (UniProt Q6B856). The assay can be described thus: co-sedimentation.
The target is the same in assay [2]. The assay can be described thus: co-sedimentation. This is another data set of the same source.
Assay [3] has as its target subtilisin-treated microtubules (C-terminal tails of α- and β-tubulin removed) (bovine) (UniProt Q6B856).
Assay [4] concerns the target paclitaxel stabilized microtubules (polymerized bovine brain tubulin) (bovine) (UniProt Q6B856). Description: co-sedimentation. This is another data set of the same source.

Where two headings read alike, the source gives them in different places.

Sequence of paclitaxel stabilized microtubules (polymerized bovine brain tubulin) (bovine) (Q6B856 whole entry, looked up): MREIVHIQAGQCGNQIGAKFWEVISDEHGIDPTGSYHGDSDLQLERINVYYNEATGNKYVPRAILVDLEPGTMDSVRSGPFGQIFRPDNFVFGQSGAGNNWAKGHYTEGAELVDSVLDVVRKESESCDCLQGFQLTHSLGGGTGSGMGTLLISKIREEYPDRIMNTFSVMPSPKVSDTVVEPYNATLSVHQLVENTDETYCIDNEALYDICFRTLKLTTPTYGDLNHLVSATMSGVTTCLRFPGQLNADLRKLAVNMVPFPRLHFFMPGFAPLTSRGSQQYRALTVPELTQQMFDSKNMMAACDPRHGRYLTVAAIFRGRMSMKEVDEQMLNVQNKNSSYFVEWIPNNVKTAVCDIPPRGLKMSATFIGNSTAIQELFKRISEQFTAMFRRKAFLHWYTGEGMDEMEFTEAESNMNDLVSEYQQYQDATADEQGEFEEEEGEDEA
Sequence of subtilisin-treated microtubules (C-terminal tails of α- and β-tubulin removed) (bovine) (Q6B856 whole entry, looked up): as above

As for “catalytic domain plus the putative neck linker of human kinesin-like DNA-binding protein (KID), Gly5-Leu379 (domain or fragment)”, the Kd (usually a measure of binding affinity in units of concentration) came to 110 nM in assay [1], 160 nM in assay [2] and 500 nM in assay [4]. Further, the K0.5,S-MT of the steady-state ATPase on subtilisin treated microtubules in assay [3] turned out to be 1.1 µM.
